This passage reports binding result and Kd results from patent publication US20240401063, “Aptamer for DKK1 and Use Thereof” (APTACURE THERAPEUTICS LIMITED, published 2024).

T1: DKK1 (Dickkopf-1), full-length (Homo sapiens, UniProt O94907 SEQ:32-266)
T1 sequence: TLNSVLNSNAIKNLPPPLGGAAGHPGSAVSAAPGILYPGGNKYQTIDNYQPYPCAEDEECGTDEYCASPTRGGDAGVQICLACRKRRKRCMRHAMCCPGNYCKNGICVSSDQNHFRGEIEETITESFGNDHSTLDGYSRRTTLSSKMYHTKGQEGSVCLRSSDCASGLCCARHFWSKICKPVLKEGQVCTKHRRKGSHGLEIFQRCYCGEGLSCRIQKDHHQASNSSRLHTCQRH

B1: Aptdkk-15 (ssDNA)
DNA: CGTACGGTCGACGCTAGCACGTTCAGATACCTTTTTTCCCCTTTGTTCTGCCGGGATCCGAGCTCCACGTG
B2: Aptdkk-4 (ssDNA)
DNA: CGTACGGTCGACGCTAGCTGCACGCTTTTCCCTCCTTTTCTCGTCTGACCGCGGGATCCGAGCTCCACGTG
B3: Aptdkk-7 (ssDNA)
DNA: CGTACGGTCGACGCTAGCAGCCCCCTTCCTTTCTTCCTCGACCTCCCTCCGCAGGATCCGAGCTCCACGTG
B4: Aptdkk-16 (ssDNA)
DNA: CGTACGGTCGACGCTAGCTACACGCCATCGGTGCCCTTTTCTCTTCTTGTCTGGGATCCGAGCTCCACGTG
B5: Aptdkk-10 (ssDNA)
DNA: CGTACGGTCGACGCTAGCACTCTCCACGTTTTTCCACCTCCTTCCTCCTTTGCGGATCCGAGCTCCACGTG
B6: Aptdkk-11 (ssDNA)
DNA: CGTACGGTCGACGCTAGCCATCCAGCTCCCTTTATTCCCTCTGTACCCTCCTGGGATCCGAGCTCCACGTG
B7: Aptdkk-14 (ssDNA)
DNA: CGTACGGTCGACGCTAGCCTGTGCAGTTGGTTGGTTATGGTTGGGACTGTCAGGATCCGAGCTCCACGTG
B8: Aptdkk-2 (ssDNA)
DNA: CGTACGGTCGACGCTAGCTGGTGTTGGGGTGGGTTGGTGGGTATTTTGGCGGTGGATCCGAGCTCCACGTG
B9: Aptdkk-18 (ssDNA)
DNA: CGTACGGTCGACGCTAGCTCCACCCAATTCTCTTCCCGTCTTTCCTGCACATGGGATCCGAGCTCCACGTG
B10: Aptdkk-9 (ssDNA)
DNA: CGTACGGTCGACGCTAGCTACACCCCTTCCTGTTCTATTCTTCCTGCCTTGCGGGATCCGAGCTCCACGTG
B11: Aptdkk-8 (ssDNA)
DNA: CGTACGGTCGACGCTAGCTGCCACCCCTGTTTTCCACATTTTCCTCGACCGCGGGATCCGAGCTCCACGTG
B12: Aptdkk-17 (ssDNA)
DNA: CGTACGGTCGACGCTAGCTACTTCTCCACGTCTCTTTCCCTGTCCCCTTCGCAGGATCCGAGCTCCACGTG
B13: Aptdkk-12 (ssDNA)
DNA: CGTACGGTCGACGCTAGCTCCCCTCATAATCCGACTTTTTCCCTCCCCCTCCCGGATCCGAGCTCCACGTG
B14: Aptdkk-1 (ssDNA)
DNA: CGTACGGTCGACGCTAGCTGTGGTTATGGGGTTGGTGGGTGGGTTCTTACGGAGGATCCGAGCTCCACGTG
B15: Aptdkk-13 (ssDNA)
DNA: CGTACGGTCGACGCTAGCTGGTGTGGGGGTGGGTGGTGGGTTGTATCGTTTGAGGATCCGAGCTCCACGTG
B16: Aptdkk-19 (ssDNA)
DNA: CGTACGGTCGACGCTAGCATAGGTTGGGTAGGTTGGTTGCTTTTTTTGTCGCGGGATCCGAGCTCCACGTG
B17: Aptdkk-6 (ssDNA)
DNA: CGTACGGTCGACGCTAGCCCGGTTGCAATGGTTGGGGTGGTTGGTTTTGCATGGGATCCGAGCTCCACGTG

In general, Kd refers to the equilibrium constant for the complex coming apart.

In one data set the target is T1, DKK1 (Dickkopf-1), full-length. Put plainly: ELONA; specificity High at 1 uM; Kd not given. As to conditions: tags: His6; label: biotin. The protocol:
(§1) Enzyme linked oligonucleotide assay (ELONA): 160 ng DKK1 per well and negative target were coated in a 96-well microtiter plate by incubating at 4° C. overnight through hydrophobic interaction. Non-binding sites in wells were blocked with bull serum albumin (BSA) at room temperature for 1 hour, and then washed with DNA-binding buffer 4 times for 5 minutes each. The biotinylated aptamer candidates/RS with an appropriate concentration were added to each well and incubated at room temperature for 45 minutes with continuous gentle shaking. After binding, the plate was washed with washing buffer 4 times for 5 minutes each to remove non-specific and weakly binding sequences. 100 μl streptavidin-horseradish peroxidase (HRP) (1:10000 dilute into PBST+0.1% BSA) was added to each well, and incubated for 30 minutes, and washed for 4 times with the binding buffer. 50 μl 3,3′,5,5′-tetramethylbenzidine (TMB) as a HRP substrate was added to each well and incubated for 20 minutes. 50 μl 2M H₂SO₄ was added to terminate the reaction. The absorbance at 450 nm was measured with a microplate reader (Molecular Device i3x). Data was analyzed with Origin software. A binding curve was generated and KD was calculated with a non-linear curve fitting model logistic.
The specificity of 1 μM of each adapter/RS against DKK-1 was determined for 20 potential sequences with the highest occurrence rate (Table 4) by ELONA and the absorbance at 450 nm was detected.
For the molecule B1, the binding result was “binds”.

Turning to B2, the binding result is “binds”.

B3: the binding result is on record as “binds”. B4: the binding result is listed as “binds”. For the molecule B5, the binding result is on record as “binds”. As to B6, the binding result is recorded as “binds”.

Staying with this data set, now noted: tags: His6; label: biotin; G-rich, predicted G4.
For the molecule B7, the binding result is recorded as “binds”.

Take B8: the binding result is “binds”.

For another data set the target is unchanged. Put plainly: BLI. As to conditions: tags: His6. How it is done: The specificity against DKK-1 was determined with 1 μM of each aptamer/RS for 19 potential sequences with the highest occurrence rate in the 30th round by ELONA. […] Next, the binding affinity against DKK1 was determined for candidate aptamers by BLL. DKK1 protein was applied at gradient concentrations of 0 nM, 3.125 nM, 6.25 nM, 12.5 nM, 25 nM, 50 nM, 100 nM, and 200 nM.
For the molecule ATGTAAATCGATTCCTCTGGCCGCATCGCGCTTTA (ssDNA) [D30-16], binding was characterised by a dissociation constant (Kd) of 1.9 nM. TCGTGCTTGATTCCATGCTTGGCCGCCTTCTCGTG (ssDNA) [D30-12] had a Kd of 5.99 nM.

On to ATGCCCCTCCTCTGTTGAACTGTTTACCCCTTTGA (ssDNA) [D30-14], for which the Kd was 2.54 nM.

As to CTTCTTGTCCCTCGATGTGTTCAGTGTTTGTGTGT (ssDNA) [D30-3], the Kd is 2.64 nM. Molecule CATTGTCTCAGCGCATGTGTTCAGTTCTTGTGTGT (ssDNA) [D30-2] gave a Kd of 2.89 nM. Take TCTGCTTTCACGTACTAGGTTGGTTAGGTTGGTGT (ssDNA) [D30-18]: the Kd amounted to 20.8 nM.

Regarding TGCTGAACTTTACGTGATTCTAGTCGCTGACCGCG (ssDNA) [D30-4], the Kd was found to be 23 nM.

As for TCCTCTTCCTTTGGCTAGGTTGGTTAGGTTGGTGC (ssDNA) [D30-10], the Kd turned out to be 1.97 nM. TATGGTTTCCCTACATGTGTTCAGTGTTTGTGTGT (ssDNA) [D30-13] displayed an equilibrium dissociation constant (Kd) of 1.67 nM.

Molecule ATGTCCATTTGCGAGTAGGTGTTTGAGTGAGGTGA (ssDNA) [D30-1] gave a Kd of 5.34 nM. As to CTGTTCTAACGTGGTTGACCCCCCTTTGCTTTGAC (ssDNA) [D30-9], binding was put at a Kd of 2.42 nM. In turn, AATTTCGATAGTCCATGTGTTCAGTGCCTGTGTGT (ssDNA) [D30-15] registered a Kd of 2.92 nM.

Consider CAGTCTTAGTGCTCATGTGTTCAGTGTTTGTGTGT (ssDNA) [D30-17], for which the Kd was 20.1 nM. TGCATCTTCCTTCTTCGATTCTATGCTCGGCCGCG (ssDNA) [D30-8] yielded a Kd of 3.19 nM. TACCTTCTGCTCGATGTGTTCAGTGTGTTGTGTGT (ssDNA) [D30-19] had a Kd of 20.1 nM. In turn, TGTAGATAGAGGGGTTGGTGTGGTTGGCGCTATCC (ssDNA) [D30-7] registered a Kd of 5.5 nM.

For the next data set the target is unchanged. Description: ELONA; room temperature. The note with it: tags: His6; label: biotin. How it is done:
as §1
Aptamer candidates with significant specificity and Candidate 3 as a negative control were used to determine the binding affinity against DKK1. Candidates 1, 2, 4, and 14 had concentrations of (0, 62.5 nM, 125 nM, 250 nM, 500 nM, 1000 nM, 2000 nM, and 4000 nM), Candidates 7, 10, 15, and 16 had concentrations of (0, 23.44 nM, 46.86 nM, 93.75 nM, 187.5 nM, 375 nM, 750 nM, and 1500 nM), and other candidates had concentrations of (0, 0.18 nM, 0.74 nM, 2.96 nM, 11.84 nM, 47.35 nM, 189.39 nM, and 757.58 nM). […] Six candidates (aptdkk-5, 13, 20, 19, 6, and 1) were rich in G. The other five sequences (aptdkk-9, 18, 12, 17, and 8) were not rich in G.
In turn, B9 came in with a Kd of 8.2 nM. The same measure, in the same setting: with B10 the figure was 4.2 nM; with B11, 104 nM. The molecule B12 registered a Kd of 50.4 nM. In the case of B13, the affinity, expressed as Kd, was 38.2 nM.

The same data set, now with this note: tags: His6; label: biotin; G-rich, predicted G4.
On to B14, for which the Kd is 344 nM.

Regarding B15, the Kd was 1.1 nM. Still for that read-out and setting: with B16 the figure was 9.7 nM; with B17, 29.4 nM.
